As a reminder, the stoichiometry N is a count of units in the complex or per binding partner.

The record followed here is PMC8805024.

For this assay, the target named is Acinetobacter baumannii AdeJ multidrug efflux pump (Acinetobacter baumannii AB0057). Put plainly: cryo-EM structure; single-particle cryo-EM of 10 uM AdeJ-nanodisc (MSP 1E3D1, E. coli total lipid extract) incubated with 20 uM TP-6076 for 1 h; 2.91 Å; asymmetric trimer of access, binding and extrusion protomers.

“Acinetobacter baumannii AdeJ multidrug efflux pump (natural protein)” had a stoichiometry N of 3.
